The target in test [1] is ixochymostatin (Ixodes scapularis). Put plainly: SPR. Background: SPR reads the build-up and loss of mass on a sensor chip optically.
Test [2] has as its target bovine pancreatic chymotrypsin (bovine). Put plainly: enzyme inhibition kinetics.

The Kd is the equilibrium constant for the complex coming apart. A lower Kd goes with a tighter complex. By koff is commonly meant a measure of how fast the partners let go of each other. Lower therefore signals slow dissociation. The kon is a measure of how fast the partners come together. A lower kon goes with slow association. The Ki is a measure of affinity in units of concentration, obtained from inhibition or displacement. Read a high Ki as lower affinity.

Sequence of ixochymostatin (Ixodes scapularis) (B7PCV3 21-91): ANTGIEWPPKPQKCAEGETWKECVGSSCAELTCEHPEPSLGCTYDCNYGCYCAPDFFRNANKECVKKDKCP
Sequence of ixochymostatin (natural protein) (B7PCV3 21-91): as above

In test [1], bovine pancreatic chymotrypsin (enzyme) displayed a Kd of 0.076 nM, a koff of 1.2e-05 s⁻¹ and a kon of 160000 M⁻¹ s⁻¹.
For the substance ixochymostatin (natural protein), in test [2], the inhibition constant Ki is 0.14 nM; the Ki^app (Morrison equation) worked out at 0.81 nM; the apparent Ki (Ki^app), from IC50 against protease concentration worked out at 16 nM.

(Values after publication doi:10.1101/2024.10.04.616518.)
